Experiments:
[1] = molecular target: T1, Oct2β (in vitro translated) (Ictalurus punctatus (channel catfish), UniProt O13007 1-480); test: EMSA; 1x Promega binding buffer (from 5x, composition not given), 30 min preincubation at room temperature then 30 min with probe; 5% native PAGE at 4°C; 100x competitor; pH and salt not given; extract EMSA as in Ross et al; conditions: protein: ivt; label: 32P-dATP Klenow fill-in; 5' overhang 4 nt on both strands as annealed; labeled by Klenow fill-in
T1 sequence: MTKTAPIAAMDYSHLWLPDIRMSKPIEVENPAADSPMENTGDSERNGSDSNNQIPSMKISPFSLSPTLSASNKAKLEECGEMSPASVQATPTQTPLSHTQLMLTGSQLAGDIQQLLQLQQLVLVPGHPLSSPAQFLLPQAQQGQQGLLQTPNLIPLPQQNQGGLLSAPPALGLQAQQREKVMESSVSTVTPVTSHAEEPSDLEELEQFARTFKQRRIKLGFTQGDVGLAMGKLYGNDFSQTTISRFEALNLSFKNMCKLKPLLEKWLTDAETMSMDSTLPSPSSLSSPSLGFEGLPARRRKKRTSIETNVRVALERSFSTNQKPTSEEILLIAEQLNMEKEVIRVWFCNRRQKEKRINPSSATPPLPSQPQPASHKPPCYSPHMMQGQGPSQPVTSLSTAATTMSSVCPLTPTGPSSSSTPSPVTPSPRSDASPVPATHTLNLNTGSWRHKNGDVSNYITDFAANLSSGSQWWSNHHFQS

[2] = molecular target: T2, Oct1 (in vitro translated) (Ictalurus punctatus (channel catfish; …, UniProt O57602 1-623); test: EMSA; cold self competitor inhibits; anti-Oct1 abolishes shift; 1x Promega binding buffer (from 5x, composition not given), 30 min preincubation at room temperature then 30 min with probe; 5% native PAGE at 4°C; 100x competitor; pH and salt not given; extract EMSA as in Ross et al; conditions: protein: ivt; label: 32P-dATP Klenow fill-in; 5' overhang 4 nt on both strands as annealed; labeled by Klenow fill-in
T2 sequence: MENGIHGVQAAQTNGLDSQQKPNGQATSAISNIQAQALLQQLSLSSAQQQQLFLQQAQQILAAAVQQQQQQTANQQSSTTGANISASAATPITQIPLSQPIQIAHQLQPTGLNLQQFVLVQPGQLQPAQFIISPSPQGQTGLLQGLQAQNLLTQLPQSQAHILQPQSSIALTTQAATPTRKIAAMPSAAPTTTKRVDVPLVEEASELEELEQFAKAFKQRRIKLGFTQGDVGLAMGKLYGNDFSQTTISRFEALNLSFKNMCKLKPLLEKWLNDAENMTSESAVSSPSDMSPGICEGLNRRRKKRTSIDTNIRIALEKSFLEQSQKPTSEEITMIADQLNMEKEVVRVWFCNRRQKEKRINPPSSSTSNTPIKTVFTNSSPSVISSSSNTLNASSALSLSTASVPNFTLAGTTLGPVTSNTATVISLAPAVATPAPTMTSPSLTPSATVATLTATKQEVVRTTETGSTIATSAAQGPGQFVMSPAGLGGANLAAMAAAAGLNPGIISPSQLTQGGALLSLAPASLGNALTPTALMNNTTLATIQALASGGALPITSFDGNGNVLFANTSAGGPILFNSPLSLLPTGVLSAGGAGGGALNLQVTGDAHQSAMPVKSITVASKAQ

B1: Eμ3' core enhancer first octamer (G-2110/G-2111) (dsDNA)
DNA 1: GCAAAACACTGCATGTAAATAGTCTAAT
DNA 2: CATTATTAGACTATTTACATGCAGTGTT
Question: Does B1 bind [1]?
Answer: Result: binds

Question: Does B1 bind [2]?
Answer: Result: binds

Reference: article PMC1800861, “Characterization of an Oct1 orthologue in the channel catfish, Ictalurus punctatus: A negative regulator of immunoglobulin gene transcription?”
